Two proteins from publication doi:10.1101/2025.01.26.634952 (bioRxiv, 2025) can be followed below.

This data set deals with the molecule itself. Nature of the data set: SAXS.

B1: SmFtsZ-WT (full-length Streptococcus mutans FtsZ) (natural protein)
chain: MAFSFDAASVQGAVIKVIGVGGGGGNAINRMIDEGVAGVEFIAANTDIQALSSSKAETVIQLGPKLTRGLGAGGQPEIGRKAAEESEEALTEALTGADMVFITAGMGGGSGTGAAPVIARIAKGLGSLTVAVVTRPFGFEGSKRGNYAIEGINELRDEVDTLLIISNNNLLEIVDKKTPLLEALSEADNVLRQGVQGITDLITSPGLINLDFADVKTVMASKGNALMGIGIGTGEERVVEAARKAIYSPLLETTIDGAEDVIVNVTGGLDMTLTEAEEASEIVNQAAGHGVNIWLGTSIDDSMKDEIRVTVVATGVRPDKADQVSGIRRQASSYTQPRAQQQAPSSNSAQPNFERRQNFDFDLNESPEMPAAEPQQTQSSSEPQQSAFGDWNLRRENIARPTEGEIDSQLKMSSFSADSDDDDELETPPFFKNR
Regarding B1, the binding result is listed as “binds”.

B2: SmFtsZ-R68A (natural protein)
chain: MAFSFDAASVQGAVIKVIGVGGGGGNAINRMIDEGVAGVEFIAANTDIQALSSSKAETVIQLGPKLTAGLGAGGQPEIGRKAAEESEEALTEALTGADMVFITAGMGGGSGTGAAPVIARIAKGLGSLTVAVVTRPFGFEGSKRGNYAIEGINELRDEVDTLLIISNNNLLEIVDKKTPLLEALSEADNVLRQGVQGITDLITSPGLINLDFADVKTVMASKGNALMGIGIGTGEERVVEAARKAIYSPLLETTIDGAEDVIVNVTGGLDMTLTEAEEASEIVNQAAGHGVNIWLGTSIDDSMKDEIRVTVVATGVRPDKADQVSGIRRQASSYTQPRAQQQAPSSNSAQPNFERRQNFDFDLNESPEMPAAEPQQTQSSSEPQQSAFGDWNLRRENIARPTEGEIDSQLKMSSFSADSDDDDELETPPFFKNR
As for B2, the binding result is on record as “binds”.
